Experiments:
Human VEGF-A 165 = biological target: T1, Human VEGF-A 165 (human, UniProt P15692 207-395); experiment: SPR (Biacore), antibody captured by anti-human Fc, hVEGF165 as analyte
T1 construct: Recombinant human VEGF165; also called huVEGF-A165; hVEGF165
Experimental: (§1) For example, approximately 9000 RU of goat anti-human Fc specific polyclonal antibody (Thermo Fisher Scientific Inc., Rockford, Ill.) diluted in 10 mM sodium acetate (pH 4.5) is directly immobilized across a CM5 research grade biosensor chip using a standard amine coupling kit according to manufacturer's instructions and procedures at 25 μg/ml. Unreacted moieties on the biosensor surface were blocked with ethanolamine. For kinetic analysis, rate equations derived from the 1:1 Langmuir binding model were fitted simultaneously to multiple antigen injections (using global fit analysis) with the use of Scrubber 2 (BioLogic Software), Biacore Biaevaluation 4.0.1 software or Biacore T100 Evaluation software. Purified antibodies or DVD-Ig molecules were diluted in running buffer for capture across goat anti-human Fc reaction surfaces. Antibodies or DVD-Ig molecules to be captured as a ligand (1 μg/ml) were injected over reaction matrices at a flow rate of 10 μl/minute. During the assay, all measurements were referenced against the capture surface alone (i.e., with no captured antibody or DVD-Ig molecule). […] The equilibrium dissociation constant KD (M) of the reaction between antibodies and the target antigen was then calculated from the kinetic rate constants by the following formula: KD=Koff/Kₒₙ. Binding was recorded as a function of time and kinetic rate constants were calculated.

Human PDGF-BB [1] = biological target: T2, Human PDGF-BB (human, UniProt P01127 82-190); experiment: cell-based or functional assay
[2] = biological target: T3, Cynomolgus monkey PDGF-BB (cynomolgus monkey, UniProt P01127 82-190 (human entry), limits assumed); experiment: cell-based or functional assay
T3 chain: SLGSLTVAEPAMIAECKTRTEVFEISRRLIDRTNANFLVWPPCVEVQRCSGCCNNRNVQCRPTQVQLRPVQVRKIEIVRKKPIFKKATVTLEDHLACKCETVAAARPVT

Human PDGF-BB [3] = biological target: T2, Human PDGF-BB; experiment: Biacore SPR, antibody captured by anti-human Fc, PDGF-BB as analyte
Experimental: as §1, with “Unreacted” for “For example, approximately 9000 RU of goat anti-human Fc specific polyclonal antibody (Thermo Fisher Scientific Inc., Rockford, Ill.) diluted in 10 mM sodium acetate (pH 4.5) is directly immobilized across a CM5 research grade biosensor chip using a standard amine coupling kit according to manufacturer's instructions and procedures at 25 μg/ml. Unreacted”, “calculated. In this assay, on-rates as fast as 10⁶M⁻¹s⁻¹ and off-rates as slow as 10⁻⁶ s⁻¹ could be measured. […]” for “calculated.”

Human PDGF-BB [4] = biological target: T2, Human PDGF-BB; experiment: competition ELISA: antibody pre-incubated with hPDGF-BB-biotin, binding to coated hPDGF-Rβ-Fc
Experimental: Plates were then washed four times with wash buffer (TBS, 0.05% Tween-20) and blocked with Superblock blocking buffer (Thermo Scientific, cat#37535). During the blocking step, supernatants, antibodies, benchmark compounds or DVD-Ig were diluted in assay diluent (10% Superblock containing 0.05% surfactamps) and an eight point titration of each sample molecule was performed. […] Following incubation, plates were washed four times with wash buffer. Detection reagent Streptavidin-polyHRP-40 (Fitzgerald, cat#65r-s104phrp) was diluted in assay diluent and added to plates (50 μL) for 45 minutes at 25° C. with shaking. Plates were washed four times with wash buffer and developed with the addition of Enhanced K-blue TMB substrate (Neogen, cat#308177). The reaction was stopped with 2N sulfuric acid (VWR, cat# BDH3500-1) and the absorbance was read at 450 nm-570 nm. […] Data was analyzed using Softmax Pro 4.8 software and IC₅₀ values calculated using a sigmoidal dose response (variable slope) fit in GraphPad Prism 5.
Potency was evaluated in both cell-based and ELISA formats.

T1 sequence (P15692 other isoform, or with tags, fused parts or gaps): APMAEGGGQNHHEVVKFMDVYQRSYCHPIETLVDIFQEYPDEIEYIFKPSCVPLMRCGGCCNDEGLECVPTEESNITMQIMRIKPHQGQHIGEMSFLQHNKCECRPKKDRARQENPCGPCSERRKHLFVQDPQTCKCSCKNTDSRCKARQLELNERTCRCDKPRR

B1: chBEW-10H2 (antibody, human IgG1, kappa, L234A L235A, V domains shown)
VH: QIQLVQSGPELKKPGESVKISCKASGYSFTNFGLYWVKQAPGQGLQYMGWIDTETGKPTYADDFRGRFVFFLETSASTAYLQINNLKNEDMATYFCARVYGYPSWYFDFWGPGTMVTVSS
VL: DIQMTQSPASLSTSLEEIVTITCQASQDIDNYLSWYQQKPGKSPQLLIHSATSLADGVPSRFSGSRSGTQFSLKIHRLQVEDTGIYYCLQHFFPPWTFGGGTKLELKR
notes: also called chBEW-10H2-B9
- Kd (Human VEGF-A 165): 0.013 nM
- kon (Human VEGF-A 165): 2.8e+07 M⁻¹ s⁻¹

B2: CL-33578-IgG (antibody, V domains shown)
VH: EVTLRESGPALVKPTQTLTLTCTFSGFSLSTYGMGVGWIRQPPGKALEWLANIWWDDDKYYNPSLKNRLTISKDTSKNQVVLTMTNMDPVDTATYYCARIQSGWTNYEFDYWGQGTMVTVSS
VL: EIVLTQSPGTLSLSPGERATLSCERSSGDIGDSYVSWYQQKPGQAPRLVIYADDQRPSGIPDRFSGSGSGTDFTLTISRLEPEDFAVYYCQSYDINIDIVFGGGTKVEIK
- hPDGF-BB NIH-3T3 Proliferation IC50 (Human PDGF-BB [1]): 0.033 nM
- cynoPDGF-BB NIH-3T3 Proliferation IC50 [2]: 0.023 nM
- Kd (Human PDGF-BB [3]): ≤ 0.0003 nM
- kon (Human PDGF-BB [3]): ≥ 9e+07 M⁻¹ s⁻¹
- IC50 (Human PDGF-BB [4]): 0.049 nM

B3: CL-33759-IgG (antibody, V domains shown)
VH: EVTLRESGPALVKPTQTLTLTCTFSGFSLSTYGMGVGWIRQPPGKALEWLANIWWDDDKYYNPSLKNRLTISKDTSKNQVVLTMTNMDPVDTATYYCARIESVWTRYDFDYWGQGTMVTVSS
VL: EIVLTQSPGTLSLSPGERATLSCERSSGDIWQTYVSWYQQKPGQAPRLVIYGDDQRASGIPDRFSGSGSGTDFTLTISRLEPEDFAVYYCQSYDIDIDITFGGGTKVEIK
- hPDGF-BB NIH-3T3 Proliferation IC50 (Human PDGF-BB [1]): 0.293 nM
- cynoPDGF-BB NIH-3T3 Proliferation IC50 [2]: 0.18 nM
- IC50 (Human PDGF-BB [4]): 1.27 nM

B4: CL-33587-IgG (antibody, V domains shown)
VH: EVTLRESGPALVKPTQTLTLTCTFSGFSLSTYGMGVGWIRQPPGKALEWLANIWWDDDKYYNPSLKNRLTISKDTSKNQVVLTMTNMDPVDTATYYCARIQSMWTRYDFDYWGQGTMVTVSS
VL: EIVLTQSPGTLSLSPGERATLSCERSSGDIGDSYVSWYQQKPGQAPRLVIYADDQRPSGIPDRFSGSGSGTDFTLTISRLEPEDFAVYYCQSYDINIDIVFGGGTKVEIK
- hPDGF-BB NIH-3T3 Proliferation IC50 (Human PDGF-BB [1]): 0.046 nM
- cynoPDGF-BB NIH-3T3 Proliferation IC50 [2]: 0.029 nM
- Kd (Human PDGF-BB [3]): ≤ 0.00022 nM
- kon (Human PDGF-BB [3]): ≥ 9e+07 M⁻¹ s⁻¹
- IC50 (Human PDGF-BB [4]): < 0.1 nM

B5: CL-33675-IgG (antibody, V domains shown)
VH: EVTLRESGPALVKPTQTLTLTCTFSGFSLSTYGMGVGWIRQPPGKALEWLANIWWDDDKYYNPSLKNRLTISKDTSKNQVVLTMTNMDPVDTATYYCARIESSGPKYSFDYWGQGTMVTVSS
VL: EIVLTQSPGTLSLSPGERATLSCRASSGSIWYSFVSWYQQKPGQAPRLLIYADDQRASGIPDRFSGSGSGTDFTLTISRLEPEDFAVYYCQSYGINIDVVFGGGTKVEIK
- hPDGF-BB NIH-3T3 Proliferation IC50 (Human PDGF-BB [1]): 0.04 nM
- cynoPDGF-BB NIH-3T3 Proliferation IC50 [2]: 0.024 nM
- Kd (Human PDGF-BB [3]): 0.00061 nM
- kon (Human PDGF-BB [3]): 3.6e+07 M⁻¹ s⁻¹
- IC50 (Human PDGF-BB [4]): 0.054 nM

B6: CL-33767-IgG (antibody, V domains shown)
VH: EVTLRESGPALVKPTQTLTLTCTFSGFSLSTYGMGVGWIRQPPGKALEWLANIWWDDDKYYNPSLKNRLTISKDTSKNQVVLTMTNMDPVDTATYYCARIESIGPKYSFDYWGQGTMVTVSS
VL: EIVLTQSPGTLSLSPGERATLSCRASSGSIWYSFVSWYQQKPGQAPRLLIYADDQRASGIPDRFSGSGSGTDFTLTISRLEPEDFAVYYCQSYGINIDVVFGGGTKVEIK
- hPDGF-BB NIH-3T3 Proliferation IC50 (Human PDGF-BB [1]): 0.09 nM
- cynoPDGF-BB NIH-3T3 Proliferation IC50 [2]: 0.042 nM
- IC50 (Human PDGF-BB [4]): 0.114 nM

B7: CL-33699-IgG (antibody, V domains shown)
VH: EVTLRESGPALVKPTQTLTLTCTFSGFSLSTYGMGIGWIRQPPGKALEWLANIWWDDDKYYNPSLKNRLTISKDTSKNQVVLTMTNMDPVDTATYYCARIESMGPKYAFDYWGQGTMVTVSS
VL: EIVLTQSPGTLSLSPGERATLSCRASSGSIWYSFVSWYQQKPGQAPRLLIYADDQRASGIPDRFSGSGSGTDFTLTISRLEPEDFAVYYCQSYGINIDVVFGGGTKVEIK
- hPDGF-BB NIH-3T3 Proliferation IC50 (Human PDGF-BB [1]): 0.033 nM
- cynoPDGF-BB NIH-3T3 Proliferation IC50 [2]: 0.016 nM
- IC50 (Human PDGF-BB [4]): 0.072 nM

B8: CL-33683-IgG (antibody, V domains shown)
VH: EVTLRESGPALVKPTQTLTLTCTFSGFSLSTYGMGVGWIRQPPGKALEWLANIWWDDDKYYNPSLKNRLTISKDTSKNQVVLTMTNMDPVDTATYYCARIETIGPKYSFDYWGQGTMVTVSS
VL: EIVLTQSPGTLSLSPGERATLSCRASSGSIWYSFVSWYQQKPGQAPRLLIYADDQRASGIPDRFSGSGSGTDFTLTISRLEPEDFAVYYCQSYGINIDVVFGGGTKVEIK
- hPDGF-BB NIH-3T3 Proliferation IC50 (Human PDGF-BB [1]): 0.029 nM
- cynoPDGF-BB NIH-3T3 Proliferation IC50 [2]: 0.028 nM
- Kd (Human PDGF-BB [3]): 0.00044 nM
- kon (Human PDGF-BB [3]): 1.9e+07 M⁻¹ s⁻¹
- IC50 (Human PDGF-BB [4]): 0.126 nM

B9: CL-33682-IgG (antibody, V domains shown)
VH: EVTLRESGPALVKPTQTLTLTCTFSGFSLSTYGMGVGWIRQPPGKALEWLANIWWDDDKYYNPSLKNRLTISKDTSKNQVVLTMTNMDPVDTATYYCARIESSWTSYSFDYWGQGTMVTVSS
VL: EIVLTQSPGTLSLSPGERATLSCERSSGSNYDTYVSWYQQKPGQAPRLLIYADDLRASGIPDRFSGSGSGTDFTLTISRLEPEDFAVYYCQSYGINIDVVFGGGTKVEIK
- hPDGF-BB NIH-3T3 Proliferation IC50 (Human PDGF-BB [1]): 0.03 nM
- cynoPDGF-BB NIH-3T3 Proliferation IC50 [2]: 0.019 nM
- Kd (Human PDGF-BB [3]): ≤ 0.00024 nM
- kon (Human PDGF-BB [3]): ≥ 9e+07 M⁻¹ s⁻¹
- IC50 (Human PDGF-BB [4]): 0.069 nM

B10: CL-33845-IgG (antibody, V domains shown)
VH: EVTLRESGPALVKPTQTLTLTCTFSGFSLSTYGMGVGWIRQPPGKALEWLANIWWDDDKYYNPSLKNRLTISKDTSKNQVVLTMTNMDPVDTATYYCARIVSDWTTYSFDYWGQGTMVTVSS
VL: EIVLTQSPGTLSLSPGERATLSCRASSGSIWYSFVSWYQQKPGQAPRLLIYADDQRASGIPDRFSGSGSGTDFTLTISRLEPEDFAVYYCQSYGINIDVVFGGGTKVEIK
- hPDGF-BB NIH-3T3 Proliferation IC50 (Human PDGF-BB [1]): 0.171 nM
- cynoPDGF-BB NIH-3T3 Proliferation IC50 [2]: 0.073 nM
- IC50 (Human PDGF-BB [4]): 0.409 nM

B11: CL-33737-IgG (antibody, V domains shown)
VH: EVTLRESGPALVKPTQTLTLTCTFSGFSLSTYGMGVGWIRKPPGKALEWLANIWWDDDKYYNPSLKNRLTISKDTSKNQVVLTMTNMDPVDTATYYCARIESSGPKYSFDYWGQGTMVTVSS
VL: EIVLTQSPGTLSLSPGERATLSCRASSGSIWYSFVSWYQQKPGQAPRLLIYADDQRASGIPDRFSGSGSGTDFTLTISRLEPEDFAVYYCQSYGINIDVVFGGGTKVEIK
- hPDGF-BB NIH-3T3 Proliferation IC50 (Human PDGF-BB [1]): 0.03 nM
- cynoPDGF-BB NIH-3T3 Proliferation IC50 [2]: 0.024 nM
- IC50 (Human PDGF-BB [4]): 0.092 nM

B12: chBEW-8E6 (antibody, human IgG1, kappa, L234A L235A, V domains shown)
VH: QIQLVQSGPELKKPGESVKISCKASGYTFTDYAMHWVKQAPGKVLKWMGWINTFTGKPTYIDDFKGRFVFSLEASASTANLQISDLKNEDTATYFCARGNYYSGYWYFDFWGPGTMVTMSS
VL: DIQMTQSPASLSASLGETISIECRASEDISSNLAWYQQKSGKSPQLLIFAANRLQDGVPSRFSGSGSGTQFSLKISGMQPEDEGDYFCLQGSKFYTFGAGTKLELKR
notes: also called chBEW-8E6-E4
- Kd (Human VEGF-A 165): 0.016 nM
- kon (Human VEGF-A 165): 6.2e+06 M⁻¹ s⁻¹

B13: chBEW-5C3 (antibody, human IgG1, kappa, L234A L235A, V domains shown)
VH: QIQLVQSGPELKKPGESVKISCKASGYTFTNYGVYWVKQAPGQGLQYMGWINTETGKPTYADDFKGRFVFFLETSTNTAYLQINNLKNEDMATFFCARARQLDWFVYWGQGTLVTVSS
VL: DTVLTQSPALTVSPGERVSISCRARESLTTSLCWFQQKPGQQPKLLIYGASKLESGVPARFSGSGSGTDFTLTIDPVEADDTATYFCQQSWYDPPTFGGGTKLELKR
notes: also called chBEW-5C3-E7
- Kd (Human VEGF-A 165): 0.012 nM
- kon (Human VEGF-A 165): 6.8e+06 M⁻¹ s⁻¹
